In patent US20150299277A1 (published 2015):

What was measured:
[1] = target: T1, recombinant human histone H4 (UniProt P62805 2-103); assay: SPR; Ca2+
[2] = target: T2, recombinant human histone H3 (UniProt P68431 2-136); assay: SPR; Ca2+
[3] = target: T1, recombinant human histone H4; assay: SPR; EDTA/EGTA
[4] = target: T2, recombinant human histone H3; assay: SPR; EDTA/EGTA
[5] = target: recombinant human histone H2B (human); assay: SPR; Ca2+

Kd [1] [nM]	Kd [2] [nM]	Kd [3] [nM]	Kd [4] [nM]	Kd [5] [nM]	Binder
1.04	5.64	322	4.77		Myc- and His-tagged C-terminal domain human PTX3 (animal cell expressed) (other) CETAILFPMRSKKIFGSVHPVRPMRLESFSACIWVKATDVLNKTILFSYGTKRNPYEIQLYLSYQSIVFVVGGEENKLVAEAMVSLGRWTHLCGTWNSEEGLTSLWVNGELAATTVEMATGHIVPEGGILQIGQEKNGCCVGGGFDETLAFSGRLTGFNIWDSVLSNEEIRETGGAESCHIRGNIVGWGVTEIQPHGGAQYVS
1.21	0.354		1.95	10.9	Escherichia coli-expressed N-terminal domain human PTX3 wherein the 47th, 49th, 103rd cysteine residues were replaced with serine residue (other) ENLYFQGENSDDYDLMYVNLDNEIDNGLHPTEDPTPSDSGQEHSEWDKLFIMLENSQMRERMLLQATDDVLRGELQRLREELGRLAESLARPSAPGAPAEARLTSALDELLQATRDAGRRLARMEGAEAQRPEEAGRALAAVLEELRQTRADLHAVQGWAARSWLPAG
